Data: the nanobody polyreactivity screen of Harvey et al. (2022)

Test: yeast display, Sf9 membrane polyspecificity reagent, FACS + sequencing; frameworks hold sequencing errors
Procedure, shortened: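 Galactose induction of a Saccharomyces cerevisiae BJ5465 synthetic nanobody display library ran 36–48 hours. The cells were then stained for 1 hour at 4 °C with 10% biotinylated, detergent-solubilized Sf9 membrane reagent, pulled down on streptavidin microbeads and FACS-sorted into low and high (top ~1%) gates on expression and reagent-binding fluorescence. Labels for polyreactivity follow the gate of origin.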

Row | Sequence | polyreactivity (PSR sort gate)
1 | QVQLVESGGGLVQAGGSLRLSCAASGRIFGSYVMGWYRQAPGKERELVAAISIGGITKYADSVKGRFTISRDNAKNTVYLQMNSLKPEDTAVYYCAARLVRRYDYDYWGQGTQVTVSS | high polyreactivity
2 | QVQLVESGGGLVQAGGSLRLSCAASGRIFGSYVMGWYRQAPGKERELVAAITDGGTTFYADSVKGRFTISRDNAKNTVYLPMNSLKPEDTAVYYCAARQAGYSGRKLYYWGQGTQVTVSS | low polyreactivity
3 | QVQLVESGGGLVQAGGSLRLSCAASGRIFGTNAMGWYRPAPGKERELVADITSGGSTNYADSVKGRFTISRDNAKNTVYLQMNSLKPEDTAVYYCAAVLYSRLYWYRLDYWGQGTQVTVSS | low polyreactivity
4 | QVQLVESGGGLVQAGGSLRLSCAASGRIFGTNAMGWYRQAPGKERELVAAINGSDSSTYYADSVKGRFTISRDNAKNTVYLQMNSLKPEDTAVYYCAADWDFFQQGANGAPYDYWGQGTQVTVSS | low polyreactivity
5 | QVQLVESGGGLVQAGGSLRLSCAASGRIFGTNARVWYRQAPGKERELVADITSGGSTNYADSVKGRFTISRDNAKNTVYLQMNSLKPEDTAVYYCAADVIGDLRWYRDEYWGQGTQVTVSS | low polyreactivity
6 | QVQLVESGGGLVQAGGSLRLSCAASGRIFGTYAMGWYRQAPGKERELFAAITLSDGSTYYADSVKGRFTISRDNAKNTVYLEMNTLKPEDTAVYYCAAVVDRFHPGLYEYWGQGTQVTVSS | low polyreactivity
7 | QVQLVESGGGLVQAGGSLRLSCAASGRIFGTYAMGWYRQAPGKERELVAAISFRGGSTYYADTVNGRFTISRDNAKNTVYLQMNCLKPEDTAVYYCNARKRYSTDPGDYWGQGTQVTVSS | high polyreactivity
8 | QVQLVESGGGLVQAGGSLRLSCAASGRIFGTYAMGWYRQAPGKERELVAAITSSGGRTYYADSVKGRFTISRDNAKNTVYLQMNRLKPEDTAVYYCAAYPWYRMWGQGTQVTVSS | high polyreactivity
9 | QVQLVESGGGLVQAGGSLRLSCAASGRIFGTYAMGWYRQAPGKERELVDAISSSGTSTYYADSVKGRFTISRDNAKTTVYLQMNSLPPEDTAVYYCAVEAIDYAYAYYFRLGYDYWGQGTQVTVSS | low polyreactivity
10 | QVQLVESGGGLVQAGGSLRLSCAASGRIFGVNAMGGDRQAPGKERELVAVISSGGSTYYADSVKGRFTISRDNAKNTVYLQMNSLKPEDTAVYYCAAGYLPDYDYWGQGTQVTVSS | low polyreactivity
11 | QVQLVESGGGLVQAGGSLRLSCAASGRIFGVNAMGWYRQAPGKERELVAAINFSGGGTYYADSVKGRFTISRDNAKNTVYLQMTSLKPEDTAVYYCAADGPDYKWYYELDYWGQGTQVTVSS | low polyreactivity
12 | QVQLVESGGGLVQAGGSLRLSCAASGRIFGVNAMGWYRQAPGKERELVADISSGGSTYYADSVKGRFTISRDNAKNTVYLQMNSLKPEDTAVYYCAKAPRGRGLYDYWGQGTQVTVSS | low polyreactivity
13 | QVQLVESGGGLVQAGGSLRLSCAASGRIFGVYAMGWYRQAPGKERELVAAIDRRGGRTYYADSVKGRFTISRDNAKNTVYLQMNSLKPEDTAVYYCATARYRAEMGYWGQGTQVTVSS | high polyreactivity
14 | QVQLVESGGGLVQAGGSLRLSCAASGRIFGVYAMGWYRQAPGKERELVAAIDRRGGTTYYADSVKGRFTISRDNAKNTVYLQMNSLKPEDTAVYYCAARSYPFIATYGYWGQGTQVTVSS | high polyreactivity
15 | QVQLVESGGGLVQAGGSLRLSCAASGRIFGVYAMGWYRQAPGKERELVADISWSGSGTYADSVKGRFTISRDNAKNTVYLQMNSLKPEDTAVYYCNVDPAQIHAGYVGYDYWGQGTQVTVSS | low polyreactivity
16 | QVQLVESGGGLVQAGGSLRLSCAASGRIFGVYAMGWYRQAPGKERELVADISWSGSGTYADSVKGRFTISRDNAKNTVYLQMNSLKPEDTAVYYCNVDPAQIHSGYVGYDYWGQGTQVTVSS | low polyreactivity
17 | QVQLVESGGGLVQAGGSLRLSCAASGRIFGVYAMGWYRQSPGKERELVAPISRSGGRTYYADSVKGRFTISRDNAKNSDYLQMNSLKPEDTAVYYCNVVRWYYHPPLTGSRFDYWGQGTQVTVSS | high polyreactivity
18 | QVQLVESGGGLVQAGGSLRLSCAASGRIFGVYVMGWYRQAPGKETELVAAISWSGSHTYYADSVKGRFTISRDNAKNTVYLQMNSLKPEDTAVYYCNADSYPDYTGPGLDWYDYWGQGTQVTVSS | low polyreactivity
19 | QVQLVESGGGLVQAGGSLRLSCAASGRIFGWYAMGWSRQAPGKERELGAAITTADSTYYADSVKGRFTISRDNAKNTVYLQMNSLKPEDTAVYYCAADAYWEYDYWGQGTQVTVSS | low polyreactivity
20 | QVQLVESGGGLVQAGGSLRLSCAASGRIFGWYAMGWYRQAPGKERELVAAISSSGVSTNYADSVKGRFTISRDNAKNTVYLQMNSLKPEDTAVYYCIARGFYWYRPYVNSNGGYWGQGTQVTVSS | high polyreactivity
21 | QVQLVESGGGLVQAGGSLRLSCAASGRIFGYNAMGWYRQAPGKERELVAAIDYTGGSTYYADSVKGRFTISRDNAKNTVYLQMNSLKPEDTAVYYCAKDRTTPWEEDDYWGQGTQVTVSS | low polyreactivity
22 | QVQLVESGGGLVQAGGSLRLSCAASGRIFGYNAMGWYRQAPGKERELVAAITNGGSTNYADSVKGRFTISRDNAKNTVYLQMNSLKPEDTAVYYCAVKWYPPGHDYWGQGTQVTVSS | low polyreactivity

Row | Sequence | polyreactivity (PSR sort gate)
23 | QVQLVESGGGLVQAGGSLRLSCAASGRIFGYNVMGWYIQAPGKERELVAAISWGTGSTYADSMKGRFTISRDNAKKTVYLQMNSLIPVDTAVYYCAADSFIPPYDHWGQGTQVTVSS | low polyreactivity
24 | QVQLVESGGGLVQAGGSLRLSCAASGRIFGYYAMGWSRQAPGKERELVATITFGGGSTYYADSVKGRFTISRDNAKNTVYFQMNSLKPEDTAVYYCAADSGYLGIYGDEYSWGQGTQVTVSS | low polyreactivity
25 | QVQLVESGGGLVQAGGSLRLSCAASGRIFGYYAMGWYIQAPGKERELVAAINWRGGNTNYADSVKGRFTISRDNAKNTVYLQMNSLKPEDTAVYYCNAQVLVRPIQGEYGYWGQGTQVTVSS | low polyreactivity
26 | QVQLVESGGGLVQAGGSLRLSCAASGRIFGYYAMGWYRQAPGKERELVAAISSRGSRTYYADSVKGRFTISRDNAKNTVYLQMNSLKPVDTAVYYCATYDYWGQGTQVTVSS | high polyreactivity
27 | QVQLVESGGGLVQAGGSLRLSCAASGRIFGYYAMGWYRQAPGKERELVAAISSSGGSTYYADSVKGRFTISRDNAKNTVYLQMNSLKPEDTAVYYCAREFSDGLSGKFDYWGQGTQVTVSS | low polyreactivity
28 | QVQLVESGGGLVQAGGSLRLSCAASGRIFGYYAMGWYRQAPGKERELVAAISTRGTSTYYADSVKGRFTISRDNAKNTVYLQMNSLKPEDTAVYYCARGFPPYRGTHMNYWGQGTQVTVSS | high polyreactivity
29 | QVQLVESGGGLVQAGGSLRLSCAASGRIFGYYAMGWYRQAPGKERELVAAISYSTGGTSTYADSVKGRFTISRDNAKNTVYLQMNSLKPDDTAVYYCAKRIFTSARLNYWGQGTQVTVSS | high polyreactivity
30 | QVQLVESGGGLVQAGGSLRLSCAASGRIFGYYAMGWYRQAPGKERELVAPITKTVGGTYYADSVKGRFTISRDNAKNTVYLQMNSLKPEDTAVYYCAARVWTGNGRSKGAYDYWGQGTQVTVSS | high polyreactivity
31 | QVQLVESGGGLVQAGGSLRLSCAASGRIFGYYAMGWYRQAPGKESELVARISSSGGSTYYADSVKGRFTISRDNAKNTVYLQMNSLKPEDTAVYYCNTASNRSPGWRAEFDYWGQGTQVTVSS | low polyreactivity
32 | QVQLVESGGGLVQAGGSLRLSCAASGRIFGYYARGWYRQAPGKEREFVAGITQRTDSTYYADSVKGRFTISRDNAKNTVYLQMNSLKPEDTAVYYCAARGYGGYHWGYYWGQGTQVTVSS | high polyreactivity
33 | QVQLVESGGGLVQAGGSLRLSCAASGRIFGYYTMGWYRQAPGKERELVAAISSGGTTYYADSVKGRFTISRDNAKNTVYLQMNSLKPEDTAVYYCAADYYNTYGYDYWGQGTQVTVSS | low polyreactivity
34 | QVQLVESGGGLVQAGGSLRLSCAASGRIFGYYTMGWYRQAPGKERELVADSSGGNTSYADSVKGRFTISRDNAKNTVYLQMNSLKPEDTAVYYCAKDLPGAWRGDDYWGQGTQVTVSS | low polyreactivity
35 | QVQLVESGGGLVQAGGSLRLSCAASGRIFHANAMGWSRQAPGKERELVAGISRNGGRTYYADSVKGRFTISRDNAKNTVYLQMNSLKPEDTAVYYCNALHWQSKELDYFWGQGTQVTVSS | high polyreactivity
36 | QVQLVESGGGLVQAGGSLRLSCAASGRIFHGYAMGWYRQAPGKERELVAAISATGGSTYYADSVKGRFTISRDNAKNTVYLQMNSLKPEDTAVYYCARTNFYRSYDPGGRFYNYDYWGQGTQVTVSS | low polyreactivity
37 | QVQLVESGGGLVQAGGSLRLSCAASGRIFHGYAMGWYRQAPGKERELVAAISSGGRTNYADSVKGRFTISRDNAKNTVYLQMNSLKPEDTAVYYCAAETQWYVRSRTLFYRYDYWGQGTQVTVSS | high polyreactivity
38 | QVQLVESGGGLVQAGGSLRLSCAASGRIFHPYAMGWYRPAPGKERELVAAITNSGGITYADSVKGRFTISRDNAKNTVYLQMNSLKPEDTSVYYCNTATNRFHYKYRKPYDYWGQGTQVTVSS | low polyreactivity
39 | QVQLVESGGGLVQAGGSLRLSCAASGRIFHRNAMGWYRPAPGKERELVATIRGNGGSTYYADSVKGRFTISRDNAKNTVYLQMNSLKPEDTAVYYCARDAQGYGGWWTYSRFYSWGQGTQVTVSS | high polyreactivity
40 | QVQLVESGGGLVQAGGSLRLSCAASGRIFHRYAMGWYRQAPGKERELVASISRGDSTNYADSVKGRFTISRDNAKNTVYLQMNSLKPEDTAVYYCAARSFTRYRYYYWGQGTQVTVSS | high polyreactivity
41 | QVQLVESGGGLVQAGGSLRLSCAASGRIFHRYAMGWYRQAPGKERELVASISRGDSTNYADSVKGRFTISRDNAKNTVYLQMNSLKPEDTAVYYCAAVPRRSGHQRWGATYYYWGQGTQVTVSS | high polyreactivity
42 | QVQLVESGGGLVQAGGSLRLSCAASGRIFHSYTMGWYRQAPGKERELVAAINWSGTRTYYADSVKGRFTISRDNAKNTVYLQMNSLKPEDTAVYYCNRVGVTRSYRYDYWGQGTQVTVSS | high polyreactivity
43 | QVQLVESGGGLVQAGGSLRLSCAASGRIFHSYVMGWYRQAPGKERELVARISSGGRTNYADSVKGRFTISRDNAKNSVYLQMNSLKPEDTAVYYCAATRLYPRSRYDYWGQGTQVTVSS | high polyreactivity
